From FireProtDB (doi:10.1111/j.1432-1033.1994.tb18652.x) come the findings set out here.

For this data set the following is noted: Aspergillus oryzae (strain ATCC 42149 / RIB 40), pH 6, Thermal, DSC, sodium acetate calcium acetate 20 mM 2 mM, Mops 50 mM, reversible: yes, whole UniProt chain shown.

B1: Guanyl-specific ribonuclease T1 wild type, P00651 (protein)
chain: MMYSKLLTLTTLLLPTALALPSLVERACDYTCGSNCYSSSDVSTAQAAGYQLHEDGETVGSNSYPHKYNNYEGFDFSVSSPYYEWPILSSGDVYSGGSPGADRVVFNENNQLAGVITHTGASGNNFVECT
One may read the Tm as the temperature at which the thermal transition is half complete. With B1, the Tm stood at 57.2 °C and the “unfolding enthalpy (calorimetric)” value was determined as 96.6 kcal/mol. Moreover, under “25 °C”, the “heat capacity change of unfolding” value amounted to 0.98 kcal/mol/K and the unfolding free energy worked out at 7.82 kcal/mol.
